Measured values reported in patent CN115368458A (BIO THERA SOLUTIONS LTD, dated 2022).
Residue numbers refer to the chain shown, from its start.

T1: 人源hCD73-His (北京义翘神州, Catalog 10904-H08H) (human, UniProt P21589 27-547)
T1 construct: Bought protein; also called 人CD73; not shown: His tag
T1 sequence (looked up): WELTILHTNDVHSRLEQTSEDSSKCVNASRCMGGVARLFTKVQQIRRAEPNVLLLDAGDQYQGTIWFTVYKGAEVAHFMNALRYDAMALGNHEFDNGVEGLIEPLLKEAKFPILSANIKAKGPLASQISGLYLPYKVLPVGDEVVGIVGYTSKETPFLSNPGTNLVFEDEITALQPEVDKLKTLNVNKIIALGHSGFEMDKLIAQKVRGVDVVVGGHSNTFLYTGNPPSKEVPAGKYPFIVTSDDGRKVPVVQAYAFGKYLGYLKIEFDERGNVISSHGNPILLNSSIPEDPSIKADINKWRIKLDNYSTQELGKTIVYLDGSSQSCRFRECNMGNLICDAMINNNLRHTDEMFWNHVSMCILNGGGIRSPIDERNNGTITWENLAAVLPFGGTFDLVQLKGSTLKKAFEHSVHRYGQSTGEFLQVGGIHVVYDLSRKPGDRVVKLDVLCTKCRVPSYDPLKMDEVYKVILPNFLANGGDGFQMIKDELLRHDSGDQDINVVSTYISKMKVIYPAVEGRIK

T2: 鼠源mCD73-His (近岸生物, Catalog CD3-M52H9) (mouse, UniProt Q61503 29-551)
T2 construct: Bought protein; also called 小鼠CD73; not shown: His tag
T2 sequence (looked up): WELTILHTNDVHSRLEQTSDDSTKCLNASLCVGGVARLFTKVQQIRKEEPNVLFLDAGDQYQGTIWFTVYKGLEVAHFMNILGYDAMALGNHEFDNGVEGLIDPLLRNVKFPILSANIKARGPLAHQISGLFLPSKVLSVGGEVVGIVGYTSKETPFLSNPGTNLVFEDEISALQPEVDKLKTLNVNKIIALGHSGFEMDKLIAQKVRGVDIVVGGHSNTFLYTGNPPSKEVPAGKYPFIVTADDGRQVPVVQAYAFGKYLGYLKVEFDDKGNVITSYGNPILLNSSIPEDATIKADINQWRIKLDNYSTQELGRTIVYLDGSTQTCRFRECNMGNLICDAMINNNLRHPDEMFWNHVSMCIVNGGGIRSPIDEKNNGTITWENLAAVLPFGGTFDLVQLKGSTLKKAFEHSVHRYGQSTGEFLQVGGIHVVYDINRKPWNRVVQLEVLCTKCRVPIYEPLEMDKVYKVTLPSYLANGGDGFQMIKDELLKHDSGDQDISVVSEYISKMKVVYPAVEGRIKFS

T3: CD73 on the cell membrane of MDA-MB-231 cells (human breast cancer cells) (human, UniProt P21589 27-549)
T3 construct: whole, on cells; also called 细胞膜CD73
T3 sequence (looked up): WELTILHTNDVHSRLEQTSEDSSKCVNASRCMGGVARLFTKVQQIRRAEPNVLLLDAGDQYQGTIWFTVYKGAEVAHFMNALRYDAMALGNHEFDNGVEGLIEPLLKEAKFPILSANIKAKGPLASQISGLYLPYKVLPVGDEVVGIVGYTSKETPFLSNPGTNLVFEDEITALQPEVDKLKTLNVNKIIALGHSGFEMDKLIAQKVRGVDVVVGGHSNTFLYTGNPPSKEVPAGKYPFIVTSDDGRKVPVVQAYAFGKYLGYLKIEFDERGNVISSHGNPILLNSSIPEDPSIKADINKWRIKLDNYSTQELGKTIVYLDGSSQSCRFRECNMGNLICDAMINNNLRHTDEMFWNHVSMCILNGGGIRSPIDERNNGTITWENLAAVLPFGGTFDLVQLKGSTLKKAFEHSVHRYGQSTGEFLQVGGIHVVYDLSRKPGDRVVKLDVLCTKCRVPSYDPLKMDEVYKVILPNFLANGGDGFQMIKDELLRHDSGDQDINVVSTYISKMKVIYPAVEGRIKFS

T4: 食蟹猴cCD73-His (近岸生物, Catalog CD3-C52H9) (cynomolgus monkey, UniProt A0A2K5V5U7 27-547)
T4 construct: Bought protein; also called 食蟹猴CD73; not shown: His tag
T4 sequence: T1 sequence (looked up) with M199T, T350A, V466I

B1: 抗体P59-L12 (antibody, IgG1, V domains shown)
VH: EVQLVESGGGLVQPGGSLRLSCAASGFSFDTYAMSWVRQAPGKGLEWVSAISGDTGVTGYADSVKGRFTISRDNSKNTLYLQMNSLRAEDTAVYYCARDRYAYLVDGWFDYWGQGTLVTVSS
VL: DIQMTQSPSSLSASVGDRVTITCRASQGISSYLAWYQQKPGKAPKLLIYAASSLQSGVPSRFSGSGSGTDFTLTISSLQPEDFATYYCQTSDFFPNPVTFGQGTKVEIK
B2: 抗体P59-L1 (antibody, IgG1, V domains shown)
VH: B1 VH
VL: B1 VL with T90Q, S91A, D92S, F93Y, F94T, P95G, N96D
B3: 抗体P59-L6 (antibody, IgG1, V domains shown)
VH: B1 VH
VL: B1 VL with Q89A, T90Q, S91Y, F94S, P95F, N96Y, P97G
B4: 抗体P59-L17 (antibody, IgG1, V domains shown)
VH: B1 VH
VL: B1 VL with S91W, D92S, F93G, F94W, N96D, P97Y, V98L
notes: also called P59-17

How the values were obtained:
[1] = target: T1, 人源hCD73-His (北京义翘神州, Catalog 10904-H08H); test: SPR, Biacore T200, antibody captured on Protein A chip, hCD73-His as analyte from 32 nM, 1:1 model
[2] = target: T2, 鼠源mCD73-His (近岸生物, Catalog CD3-M52H9); test: ELISA, mCD73-His coated at 2 μg/ml, anti-h-Kappa-HRP detection; NA表示不结合或基本不结合
[3] = target: T3, CD73 on the cell membrane of MDA-MB-231 …; test: flow cytometry (MFI) on MDA-MB-231 cells, antibody from 10 ug/ml in 2-fold steps, anti-humanFc-PE
[4] = target: T1, 人源hCD73-His (北京义翘神州, Catalog 10904-H08H); test: ELISA, hCD73-His coated at 2 μg/ml, antibody from 4 μg/ml in 3-fold steps, anti-h-Kappa-HRP
[5] = target: T4, 食蟹猴cCD73-His (近岸生物, Catalog CD3-C52H9); test: ELISA, cCD73-His coated at 2 μg/ml, antibody from 4 μg/ml in 3-fold steps, anti-h-Kappa-HRP
[6] = target: T3, CD73 on the cell membrane of MDA-MB-231 …; test: cell-based or functional assay

| Binder | Kd [1] [nM] | koff [1] [s⁻¹] | kon [1] [M⁻¹ s⁻¹] | binding result [2] | EC50 [3] [µg/mL] | EC50 [4] [µg/mL] | EC50 [5] [µg/mL] | IC50 of the inhibition of the enzyme activity of cell membrane CD73 (MDA-MB-231 cells, AMP/ATP luminescence assay) [6] [µg/mL] |
| --- | --- | --- | --- | --- | --- | --- | --- | --- |
| B1 | 8.25 | 0.0068 | 827000 | – | – | – | – | – |
| B2 | 7.67 | 0.00557 | 726000 | – | – | – | – | – |
| B3 | 1.85 | 0.000198 | 107000 | – | – | – | – | – |
| B4 | 0.569 | 0.000126 | 221000 | no binding (tested: 4μg/ml (highest concentration tested)) | 0.438 | 0.0339 | 0.0427 | 0.127 |
